Key:
[1] = target: T1, Human PD-1 (ACROBiosystems, Inc., Catalog No. PD1-H5221) (human, UniProt Q15116 25-167); test: SPR (Biacore), scFv captured on anti-FLAG, PD-1 as analyte
T1 construct: Bought recombinant protein; also called huPD1-His; PD-1-his; not shown: His tag of the bought protein (huPD1-His)
Experimental: Monoclonal anti-FLAG M2 IgG (Sigma-Aldrich #F9291) was immobilized onto a CMS chip (GE Life Sciences) using amine coupling chemistry (from Amine Coupling Kit, GE Life Sciences). The immobilization steps were carried out at a flow rate of 25 μl/min in 1×HBS-EP+ buffer (GE Life Sciences; 10× Stock diluted before use). The sensor surfaces were activated for 7 min with a mixture of NHS (0.05 M) and EDC (0.2 M). The Anti-FLAG M2 IgG was injected over all 4 flow cells at a concentration of 25 μg/ml in 10 mM sodium acetate, pH 4.5, for 7 min. Ethanolamine (1 M, pH 8.5) was injected for 7 min to block any remaining activated groups.
Off-rate and kinetic binding experiments were performed at 25° C. using 1×HBS-EP+ buffer. Test and control antibodies were injected over the Anti-FLAG surface at concentrations of 5-10 μg/mL for 12 seconds at a flow rate of 10 μl/min on flow cells 2, 3 and 4, followed by a buffer wash for 30 seconds at the same flow rate. Kinetic characterization of antibody samples was carried out with a single concentration of antigen (for off-rate ranking) or a 1:2 dilution series of antigen (for kinetic characterization) and 1 injection of 0 nM antigen (i.e., buffer alone). After capturing ligand (anti-PD-1 antibody) on the anti-FLAG surface, the analyte (huPD1-His) was bound at 50, 25, 12.5, 6.25 and 0 nM for 180 seconds, followed by a 600 second dissociation phase at a flow rate of 50 μl/min. Between each ligand capture and analyte binding cycle, regeneration was carried out using 2 injections of 10 mM glycine pH 2.0 for 30 seconds at 30 μL/min, followed by a 30 second buffer wash step.
The data was fit with the Biacore T200 Evaluation software, using a 1:1 Langmuir binding model. KD (affinity, nM) was determined as a ratio of the kinetic rate constants calculated from the fits of the association and dissociation phases.

[2] = target: T2, human PD-1 expressed on the cell surface (CHO-PD1 cells) (human, UniProt Q15116 25-288); test: FACS cell binding on CHO cells expressing human PD-1
T2 construct: Also used here as the target for native PD-1 on human PBMC / T cells in the functional (IFN-g) assays; also called CHO cell line overexpressing human PD-1; Cell-Surface Human PD-1 antigen
T2 sequence (Q15116 25-288 limits assumed): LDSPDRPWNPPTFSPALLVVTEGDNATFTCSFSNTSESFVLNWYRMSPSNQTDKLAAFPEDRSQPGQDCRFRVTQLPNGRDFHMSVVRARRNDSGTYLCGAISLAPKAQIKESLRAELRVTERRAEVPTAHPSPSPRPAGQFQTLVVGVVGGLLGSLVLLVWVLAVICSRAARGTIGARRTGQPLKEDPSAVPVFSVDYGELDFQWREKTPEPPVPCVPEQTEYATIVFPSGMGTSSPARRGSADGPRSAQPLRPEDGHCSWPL
Experimental: (§1) A mix of parental CHO cells and CHO-PD1 cells was prepared as follows: Parental CHO cells were washed 2× in PBS then incubated in PBS containing 1 μM CellTrace™ Oregon Green488® (Life Technologies) at 37° C. for 30 minutes. Cells were then washed 2× with RPMI w/10% fetal calf serum (FCS), washed 2× with FACS buffer (PBS w/2% FCS), suspended thoroughly in ice-cold FACS buffer at a final concentration of 2×10⁶ cells/mL and kept on ice. CHO-PD1 cells were similarly washed with FACS buffer and kept on ice at 2×10⁶ cells/mL. Parental CHO cells and CHO-PD1 cells were then mixed to obtain a 1:1 cell suspension and seeded at 100 μL per well on 96 well polypropylene plates. Plates were spun at 1500 rpm for 5 minutes and cell pellets were suspended in 50 μL FACS buffer containing 6-12 point dilutions of anti-PD-1 variants starting from concentrations of −100-200 nM antibody, dispensed using BioMek FX (Beckman Coulter). Cells were then incubated on ice for 1 hr, washed with FACS buffer and incubated for 1 hr on ice with 50 μL FACS buffer containing 2.5 μg/ml R-phycoerythrin-conjugated goat anti-Human IgG (Jackson ImmunoResearch) or AF647-conjugated goat anti-mouse IgG (Life Technologies) dispensed using BioMek FX (Beckman Coulter). Cells were then washed 2× with FACS buffer and fixed for 10 minutes in 200 μL PBS with 2% paraformaldehyde (PFA) prior to fluorescence detection. Samples were acquired using a Becton Dickinson LSRII FACS. Mean Fluorescence Intensity of PD-1 antibody binding was analyzed using FlowJo® software (Tree Star, Inc.).
The affinity of the IgGs for cell-surface expressed human PD-1 were measured according to Example 6, above.

[3] = target: T1, Human PD-1 (ACROBiosystems, Inc., …); test: SPR (Biacore), IgG as ligand, PD-1-his as sample
[4] = target: T3, cynomolgus PD-1 expressed on CHO cells (cynomolgus, UniProt B0LAJ3 25-288); test: FACS cell binding on CHO cells expressing cynomolgus PD-1
T3 construct: also called Cell-Surface Cynomolgus PD-1 antigen
T3 sequence (B0LAJ3 entry or part of it limits assumed, form in doubt): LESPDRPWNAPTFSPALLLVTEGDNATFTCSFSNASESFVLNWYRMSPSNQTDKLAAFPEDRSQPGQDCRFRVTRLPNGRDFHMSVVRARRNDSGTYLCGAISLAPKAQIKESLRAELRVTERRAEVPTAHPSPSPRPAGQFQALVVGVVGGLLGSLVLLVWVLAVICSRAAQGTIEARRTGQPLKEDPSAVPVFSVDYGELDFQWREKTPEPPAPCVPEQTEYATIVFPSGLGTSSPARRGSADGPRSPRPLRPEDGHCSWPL
Experimental: as §1
The affinity of the IgGs for cell-surface expressed cynomolgus PD-1 were measured according to Example 6, above.

T1 sequence (Q15116 25-167 limits assumed): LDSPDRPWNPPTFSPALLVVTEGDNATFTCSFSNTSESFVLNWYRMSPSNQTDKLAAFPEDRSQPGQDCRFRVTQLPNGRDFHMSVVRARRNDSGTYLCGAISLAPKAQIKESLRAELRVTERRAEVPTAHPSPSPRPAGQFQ

| Binder | Kd [1] [nM] | koff [1] [s⁻¹] | kon [1] [M⁻¹ s⁻¹] | Kd [2] [nM] | Kd [3] [nM] | Kd [4] [nM] |
| --- | --- | --- | --- | --- | --- | --- |
| m1B10 scFv (scFv, Mouse single-chain antibody, whole chain with FlagHis tag) scFv: MSDVQLQESGPGLVKPSQSLSLTCTVTGHSITSDYAWNWIRQFPGNKLEWMGYISYSGRTSYNPSLTSRISITRDTSKNQFFLQLNSVTTEDTATYYCARGYALDYWGQGTSVTVSSGGGGSGGGGSGGGGSQIVLSQSPAILSASPGEKVTMTCRTSSSVNYMHWFQQKPGSSPKPWIYATSKLASGVPARFSGSGSGTSYSLTISRVEAEDAATYFCQQWISDPWTFGGGTKLEIKGSGDYKDDDDKGSGHHHHHH | 12.8 | 0.00239 | 186000 | – | – | – |
| h1E9-HC3 × h1E9-LC1 IgG (antibody, Humanized IgG; heavy chain with C-terminal FlagHis tag) heavy: not shown light: MDIQLTQSPSSLSASVGDRVTITCRASESVDNSGISFMSWYQQKPGKAPKLLIYTASNQGSGVPSRFSGSGSGTDFTFTISSLQPEDIATYYCQQSKEVPWTFGQGTKVEIKRTVAAPSVFIFPPSDEQLKSGTASVVCLLNNFYPREAKVQWKVDNALQSGNSQESVTEQDSKDSTYSLSSTLTLSKADYEKHKVYACEVTHQGLSSPVTKSFNRGEC | – | – | – | 8 | 3.6 | 4 |
| h1E9-HC1 × h1E9-LC1 IgG (antibody, Humanized IgG; heavy chain with C-terminal FlagHis tag) heavy: not shown light: MDIQLTQSPSSLSASVGDRVTITCRASESVDNSGISFMSWYQQKPGKAPKLLIYTASNQGSGVPSRFSGSGSGTDFTFTISSLQPEDIATYYCQQSKEVPWTFGQGTKVEIKRTVAAPSVFIFPPSDEQLKSGTASVVCLLNNFYPREAKVQWKVDNALQSGNSQESVTEQDSKDSTYSLSSTLTLSKADYEKHKVYACEVTHQGLSSPVTKSFNRGEC | – | – | – | 6 | 5.08 | 7 |
| h1E9-5-IgG-HC-FLAG-HIS × h1E9-LC1 IgG (antibody, also called h1E9-5 HC × h1E9-LC1) heavy: not shown light: MDIQLTQSPSSLSASVGDRVTITCRASESVDNSGISFMSWYQQKPGKAPKLLIYTASNQGSGVPSRFSGSGSGTDFTFTISSLQPEDIATYYCQQSKEVPWTFGQGTKVEIKRTVAAPSVFIFPPSDEQLKSGTASVVCLLNNFYPREAKVQWKVDNALQSGNSQESVTEQDSKDSTYSLSSTLTLSKADYEKHKVYACEVTHQGLSSPVTKSFNRGEC | – | – | – | 9 | 3.7 | 4 |
| h1E9-HC2 × h1E9-LC1 IgG (antibody, Humanized IgG; heavy chain with C-terminal FlagHis tag) heavy: not shown light: MDIQLTQSPSSLSASVGDRVTITCRASESVDNSGISFMSWYQQKPGKAPKLLIYTASNQGSGVPSRFSGSGSGTDFTFTISSLQPEDIATYYCQQSKEVPWTFGQGTKVEIKRTVAAPSVFIFPPSDEQLKSGTASVVCLLNNFYPREAKVQWKVDNALQSGNSQESVTEQDSKDSTYSLSSTLTLSKADYEKHKVYACEVTHQGLSSPVTKSFNRGEC | – | – | – | 7 | 3.11 | 6 |
| h4B10-3 (VH3-15-Vκ4-1) scFv (scFv, Whole scFv chain with FlagHis tag) scFv: MEVQLVESGGGLVKPGGSLRLSCAASGFTFSTYGMSWVRQAPGKGLEWVATISGGGSNTYYSDSVKGRFTISRDDSKNTLYLQMNSLKTEDTAVYYCARQRDSAWFASWGQGTLVTVSSGGGGSGGGGSGGGGSDIVMTQSPDSLAVSLGERATINCRASENVDDYGVSFMNWYQQKPGQPPKLLIYPASNQGSGVPDRFSGSGSGTDFTLTISSLQAEDVAVYYCQQSKEVPWTFGGGTKLEIKGSGDYKDDDDKGSGHHHHHH | 1.2 | 0.000617 | 513000 | – | – | – |
| h1E9-HC3 × h1E9-LC3 IgG (antibody, Humanized IgG; heavy chain with C-terminal FlagHis tag) heavy: not shown light: MEIVLTQSPGTLSLSPGERATLSCRASESVDNSGISFMSWYQQKPGQAPRLLIYTASNQGSGIPDRFSGSGSGTDFTLTISRLEPEDFAVYYCQQSKEVPWTFGQGTKVEIKRTVAAPSVFIFPPSDEQLKSGTASVVCLLNNFYPREAKVQWKVDNALQSGNSQESVTEQDSKDSTYSLSSTLTLSKADYEKHKVYACEVTHQGLSSPVTKSFNRGEC | – | – | – | 12 | 16.9 | 8 |
| h1E9-HC1 × h1E9-LC3 IgG (antibody, Humanized IgG; heavy chain with C-terminal FlagHis tag) heavy: not shown light: MEIVLTQSPGTLSLSPGERATLSCRASESVDNSGISFMSWYQQKPGQAPRLLIYTASNQGSGIPDRFSGSGSGTDFTLTISRLEPEDFAVYYCQQSKEVPWTFGQGTKVEIKRTVAAPSVFIFPPSDEQLKSGTASVVCLLNNFYPREAKVQWKVDNALQSGNSQESVTEQDSKDSTYSLSSTLTLSKADYEKHKVYACEVTHQGLSSPVTKSFNRGEC | – | – | – | 12 | 6.38 | 15 |
| h1E9-5-IgG-HC-FLAG-HIS × h1E9-LC3 IgG (antibody, also called h1E9-5 HC × h1E9-LC3) heavy: not shown light: MEIVLTQSPGTLSLSPGERATLSCRASESVDNSGISFMSWYQQKPGQAPRLLIYTASNQGSGIPDRFSGSGSGTDFTLTISRLEPEDFAVYYCQQSKEVPWTFGQGTKVEIKRTVAAPSVFIFPPSDEQLKSGTASVVCLLNNFYPREAKVQWKVDNALQSGNSQESVTEQDSKDSTYSLSSTLTLSKADYEKHKVYACEVTHQGLSSPVTKSFNRGEC | – | – | – | 11 | 16.3 | 9 |
| h1E9-HC2 × h1E9-LC3 IgG (antibody, Humanized IgG; heavy chain with C-terminal FlagHis tag) heavy: not shown light: MEIVLTQSPGTLSLSPGERATLSCRASESVDNSGISFMSWYQQKPGQAPRLLIYTASNQGSGIPDRFSGSGSGTDFTLTISRLEPEDFAVYYCQQSKEVPWTFGQGTKVEIKRTVAAPSVFIFPPSDEQLKSGTASVVCLLNNFYPREAKVQWKVDNALQSGNSQESVTEQDSKDSTYSLSSTLTLSKADYEKHKVYACEVTHQGLSSPVTKSFNRGEC | – | – | – | 9 | 10.9 | 9 |
| h1E9-HC3 × h1E9-LC2 IgG (antibody, Humanized IgG; heavy chain with C-terminal FlagHis tag) heavy: not shown light: MDIVLTQSPLSLPVTPGEPASISCRASESVDNSGISFMSWYLQKPGQSPQLLIYTASNQGSGVPDRFSGSGSGTDFTLKISRVEAEDVGVYYCQQSKEVPWTFGQGTKVEIKRTVAAPSVFIFPPSDEQLKSGTASVVCLLNNFYPREAKVQWKVDNALQSGNSQESVTEQDSKDSTYSLSSTLTLSKADYEKHKVYACEVTHQGLSSPVTKSFNRGEC | – | – | – | 19 | 3.19 | 11 |
| h1E9-HC1 × h1E9-LC2 IgG (antibody, Humanized IgG; heavy chain with C-terminal FlagHis tag) heavy: not shown light: MDIVLTQSPLSLPVTPGEPASISCRASESVDNSGISFMSWYLQKPGQSPQLLIYTASNQGSGVPDRFSGSGSGTDFTLKISRVEAEDVGVYYCQQSKEVPWTFGQGTKVEIKRTVAAPSVFIFPPSDEQLKSGTASVVCLLNNFYPREAKVQWKVDNALQSGNSQESVTEQDSKDSTYSLSSTLTLSKADYEKHKVYACEVTHQGLSSPVTKSFNRGEC | – | – | – | 12 | 19 | 19 |
| h1E9-5-IgG-HC-FLAG-HIS × h1E9-LC2 IgG (antibody, also called h1E9-5 HC × h1E9-LC2) heavy: not shown light: MDIVLTQSPLSLPVTPGEPASISCRASESVDNSGISFMSWYLQKPGQSPQLLIYTASNQGSGVPDRFSGSGSGTDFTLKISRVEAEDVGVYYCQQSKEVPWTFGQGTKVEIKRTVAAPSVFIFPPSDEQLKSGTASVVCLLNNFYPREAKVQWKVDNALQSGNSQESVTEQDSKDSTYSLSSTLTLSKADYEKHKVYACEVTHQGLSSPVTKSFNRGEC | – | – | – | 16 | 16.2 | 11 |
